Test results reported in article PMC9504514, “Identification of a Potential Inhibitor (MCULE-8777613195-0-12) of New Delhi Metallo-β-Lactamase-1 (NDM-1) Using In Silico and In Vitro Approaches” (Molecules, 2022).

Legend:
[1] = molecular target: T1, New Delhi metallo-β-lactamase-1 (NDM-1) (Klebsiella pneumoniae, UniProt C7C422); assay: biochemical
T1 construct: gene blaNDM-1

[2] = molecular target: T1, New Delhi metallo-β-lactamase-1 (NDM-1); assay: steady-state hydrolysis kinetics (Km) with purified NDM-1; assay type: biochemical
[3] = system: CC1(C)S[C@@H]2[C@H](NC(=O)[C@H](N)c3ccccc3)C(=O)N2[C@H]1C(=O)O; assay: as above; assay type: biochemical, Klebsiella pneumoniae; conditions: Zn2+ (two zinc ions)
[4] = system: CO/N=C(\C(=O)N[C@@H]1C(=O)N2C(C(=O)O)=C(COC(C)=O)CS[C@H]12)c1csc(N)n1; assay: as above; assay type: biochemical, Klebsiella pneumoniae; conditions: Zn2+ (two zinc ions)
[5] = system: C[C@@H](O)[C@H]1C(=O)N2C(C(=O)O)=C(SCCN=CN)C[C@H]12; assay: as above; assay type: biochemical, Klebsiella pneumoniae; conditions: Zn2+ (two zinc ions)
[6] = system: C[C@@H](O)[C@H]1C(=O)N2C(C(=O)O)=C(S[C@@H]3CN[C@H](C(=O)N(C)C)C3)[C@H](C)[C@H]12; assay: as above; assay type: biochemical, Klebsiella pneumoniae; conditions: Zn2+ (two zinc ions) substrate binding site (docking)

T1 sequence (C7C422 29-270 limits assumed): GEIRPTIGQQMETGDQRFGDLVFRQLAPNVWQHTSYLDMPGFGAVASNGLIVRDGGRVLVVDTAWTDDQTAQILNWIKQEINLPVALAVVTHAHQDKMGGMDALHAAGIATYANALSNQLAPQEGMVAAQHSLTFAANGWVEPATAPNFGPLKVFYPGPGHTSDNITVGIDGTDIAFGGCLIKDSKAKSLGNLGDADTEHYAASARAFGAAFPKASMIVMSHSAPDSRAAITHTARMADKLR

Compound: N#CC1=Cc2ccccc2[C@@H]2NN3C(C#N)=Cc4ccccc4[C@@H]3NN12 [MCULE-8777613195-0-12, [3R,14R]-1,2,12,13-tetrazapentacyclo [12.8.0.03,12.04,9.015,20]docosa-4,6,8,10,15,17,19,21-octaene-11,22-dicarbonitrile]
- IC50 [1]: 54.2 ± 6.3 µM

Compound: O=C(Cc1cccs1)N[C@@H]1C(=O)N2C(C(=O)O)=C(/C=C/c3ccc([N+](=O)[O-])cc3[N+](=O)[O-])CS[C@H]12 [nitrocefin]
- Km [2]: 27.1 ± 2.1 µM

Compound: New Delhi metallo-β-lactamase-1 (NDM-1) (Klebsiella pneumoniae)
- Km [3]: 99.4 ± 7.6 µM
- kcat [3]: 392 ± 25.7 s⁻¹
- kcat/Km [3]: 3.94e+06 ± 140000 M⁻¹ s⁻¹
- Km [4]: 61.6 ± 5.8 µM
- kcat [4]: 413 ± 28.1 s⁻¹
- kcat/Km [4]: 6.7e+06 ± 270000 M⁻¹ s⁻¹
- Km [5]: 83.9 ± 6.7 µM
- kcat [5]: 700 ± 18.7 s⁻¹
- kcat/Km [5]: 8.34e+06 ± 640000 M⁻¹ s⁻¹
- Km [6]: 58.3 ± 5.2 µM
- kcat [6]: 301 ± 11.9 s⁻¹
- kcat/Km [6]: 5.17e+06 ± 330000 M⁻¹ s⁻¹
